Assay results from patent publication US20170252458A1 (EISAI R AND D MANAGEMENT, published 2017).

B1: 111B10-xi (antibody, human IgG1, kappa, V domains shown)
VH: QSVEESGGRLVTPGTPLTLTCTVSGFSLNNYAMSWVRQAPGKGLEWIGSISTGGLAFYANWAKGRFTISRTSTTVDLKMTSLTTEDTATYFCGRNGGGSYIFYYFDLWGQGTLVTVSS
VL: AFELTQTPSSVEAAVGGTITIKCQASQSISSYLSWYQQKPGQPPKLLIYSASTLASGVSSRFKGSGSGTEYTLTISDLECADAATYFCQSYYDIGTSTFGGGTEVVVKR
notes: Rabbit-human chimeric anti-human mesothelin with unpaired cysteine at LCcys80; parental mAb in Biacore; also called 111810 xi
B2: 33011-zu (antibody, human IgG1, kappa, V domains shown)
VH: EVQLVESGGGLVQPGGSLRLSCAASGISLSSDAISWVRQAPGKGLEYIGIINGGGNTYYASWAKGRFTISRHNSKNTLYLQMNSLRAEDTAVYYCARGIQHGGGNSDYYYYGMDLWGQGTLVTVSS
VL: DIQMTQSPSSLSASVGDRVTITCQASQSISSVLSWYQQKPGKAPKLLIYLASTLASGVPSRFSGSGSGTDFTLTISSLQCEDIATYYCQTNYGTSSSNYGFAFGGGTKVEIKR
notes: Humanized anti-human mesothelin with unpaired cysteine at LCcys80; parental (unconjugated) mAb in Biacore; also called 33O11 zu
B3: MORAb-003-VCP-eribulin (MORAb-202) (antibody, human IgG1, kappa, V domains shown)
VH: EVQLVESGGGVVQPGRSLRLSCSASGFTFSGYGLSWVRQAPGKGLEWVAMISSGGSYTYYADSVKGRFAISRDNAKNTLFLQMDSLRPEDTGVYFCARHGDDPAWFAYWGQGTPVTVSS
VL: DIQLTQSPSSLSASVGDRVTITCSVSSSISSNNLHWYQQKPGKAPKPWIYGTSNLASGVPSRFSGSGSGTDYTFTISSLQPEDIATYYCQQWSSYPYMYTFGQGTKVEIKR
modifications: Mal-PEG2-Val-Cit-pAB-eribulin on interchain cysteines, sites not given

What was measured:
[1] = target: T1, Recombinant human mesothelin (human, UniProt Q13421 296-580, limits assumed); assay: Biacore T100, antibody captured on anti-human IgG, antigen injected, 1:1 Langmuir
T1 construct: also called MSLN
T1 sequence (Q13421 other isoform, or with tags, fused parts or gaps limits assumed): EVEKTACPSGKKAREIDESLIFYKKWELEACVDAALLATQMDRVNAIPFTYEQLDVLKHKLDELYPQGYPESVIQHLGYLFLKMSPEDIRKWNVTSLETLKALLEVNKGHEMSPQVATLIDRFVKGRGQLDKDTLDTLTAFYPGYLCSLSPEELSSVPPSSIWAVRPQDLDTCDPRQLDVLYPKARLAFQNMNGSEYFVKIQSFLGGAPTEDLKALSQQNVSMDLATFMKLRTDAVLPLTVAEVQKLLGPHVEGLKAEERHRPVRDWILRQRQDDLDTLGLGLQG
Protocol: Antibody concentrations were adjusted to 2 μg/mL in HBS-P+ buffer (GE Healthcare). Unmodified antibodies, or ADCs, were injected over an anti-human IgG sensor on a BIAcore T100 (GE Healthcare) for 1 min at a flow rate of 10 μL/min. To record the antigen association to the captured antibody, a series of increasing concentrations of antigen was injected for 300 sec at a flow rate of 30 μL/min. […] The dissociation of antigen was monitored for 30 min at the same flow rate. The sensor surface was regenerated by injecting 3 M MgCl₂ for 2×30 sec at a flow rate of 30 μL/min. Sensograms were analyzed with Biacore T100 Evaluation Software using a 1:1 Langmuir binding model.
Binding affinities of the parental antibodies were determined by Biacore analysis, as described above in section 1.6.1. Aggregation levels for all anti-human mesothelin ADCs were determined by SEC-HPLC and the DAR was analyzed using HIC-HPLC. In vitro potency was evaluated using a Crystal Violet cell-based cytotoxicity assay in A3 (A431 stabily transfected with human mesothelin (MSLN), MSLN^hi), OVCAR3 (human ovarian, MSLN^hi), HEC-251 (human endometroid, MSLN^med), H226 (human lung squamous cell mesothelioma, MSLN^lo, and A431 parental (MSLN^neg) cells. The results of the DAR, aggregation, and cytotoxicity analyses are shown in Table 50.

[2] = target: T2, Human folate receptor alpha on tumor cells (human, UniProt P15328 25-234); assay: cell-based or functional assay
T2 sequence (P15328 25-234 limits assumed): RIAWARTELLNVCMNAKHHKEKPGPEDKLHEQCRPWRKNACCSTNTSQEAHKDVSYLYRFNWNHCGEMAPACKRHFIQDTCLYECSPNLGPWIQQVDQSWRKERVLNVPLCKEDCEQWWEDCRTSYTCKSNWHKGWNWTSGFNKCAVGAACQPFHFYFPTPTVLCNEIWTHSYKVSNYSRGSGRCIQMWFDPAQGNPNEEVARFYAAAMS

[3] = target: T2, Human folate receptor alpha on tumor …; assay: cell-based or functional assay; remark: listed apart in the source

Binder | Kd [1] [nM] | IC50 (read off the curve), % survival of IGROV1 cells, conjugate alone [2] [nM] | IC50 (read off the curve), % survival of IGROV1 cells, in the presence of 2 µM unconjugated MORAb-003 as competitor [2] [nM] | Cytotoxicity EC50 (nM), A431-A3 (FR+/-), Crystal Violet assay [3] [nM] | Cytotoxicity EC50 (nM), IGROV I (FR+++), Crystal Violet assay [3] [nM] | Cytotoxicity EC50 (nM), NCI-H2110 (FR++), Crystal Violet assay [3] [nM] | Cytotoxicity EC50 (nM), OVCAR3 (FR++), Crystal Violet assay [3] [nM]
B1 | 6.3 | – | – | – | – | – | –
B2 | 3.4 | – | – | – | – | – | –
B3 | – | ~0.03 | ~3 | 23 | 0.01 | 0.74 | 0.16
